Experimental data as given in PMC6151112, “Identification of MOS9 as an interaction partner for chalcone synthase in the nucleus” (PeerJ, 2018).

What was measured:
[1] = molecular target: CHS-syfp2 fusion (Arabidopsis) (UniProt P13114); assay: FRET or BRET; frequency domain FLIM-FRET in Arabidopsis tt4-11 mesophyll protoplasts; donor MOS9-scfp3a, acceptor SYFP2 fusions; E from phase-shift lifetimes
[2] = molecular target: T1, recombinant chalcone synthase (CHS) (Arabidopsis, UniProt P13114 1-395); assay: SPR; CHS immobilised by amine coupling on a planar PEG/carboxyl chip (Reichert SR7000); MOS9 0.1-1 uM flowed over in 10 mM HEPES pH 7.5, 150 mM NaCl, 1 mg/ml BSA, 50 ul/min; KD from Koff/Kon; settings: both partners purified
T1 construct: chalcone synthase (CHS), Arabidopsis, At5g13930; The construct for recombinant CHS is not described; earlier work of the same laboratory may hold it (possibly with a carrier protein); also called recombinant CHS; source: E. coli BL21 (DE3) pLysS, purified (nickel column, FPLC)
T1 sequence (looked up): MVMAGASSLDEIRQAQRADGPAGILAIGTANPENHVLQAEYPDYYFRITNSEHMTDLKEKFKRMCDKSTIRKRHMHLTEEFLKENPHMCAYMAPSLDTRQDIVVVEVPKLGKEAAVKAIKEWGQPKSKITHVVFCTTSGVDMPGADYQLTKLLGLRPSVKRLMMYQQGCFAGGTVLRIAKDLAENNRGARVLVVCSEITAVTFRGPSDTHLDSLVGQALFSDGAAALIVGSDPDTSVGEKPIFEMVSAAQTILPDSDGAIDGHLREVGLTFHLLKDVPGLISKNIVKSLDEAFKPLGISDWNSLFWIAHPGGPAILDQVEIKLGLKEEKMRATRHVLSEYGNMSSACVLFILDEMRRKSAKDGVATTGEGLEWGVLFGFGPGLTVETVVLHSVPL

Work on MOS9-scfp3a fusion (natural protein) yielded an FRET efficiency E τ(φ) [1] of 6.5%.

B1: MOS9::V5::6xHis recombinant protein (natural protein, Arabidopsis, UniProt F4IDT4 1-193, looked up)
chain: MMGMARKISKEEVVEKLKDDGDFDRLRLKIIRRLKENEDLRNNMISVVKESTSLKRHGAQNMKTRQLSDAIFEEVGSKMLSQLSDGLWGIIRSEDGMKNEIRETVQSVYATLSNPRGEKRGTSAREMEHKIPTPKKEARTDFNTSPASKQKQELIKGAVEDNKGEACSDDVQDNKGEAYNDDEEDPELPPGFG
notes: MOS9, Arabidopsis, At1g12530, coding region minus the stop codon (193 amino acids), from clone pENTR221-AT1G12530, recombined into pET-DEST42; Gateway recombination leaves linker residues between MOS9 and the tags; also called At1g12530 protein; recombinant protein generated in E. coli from At1g12530 cDNA; source: E. coli BL21 (DE3) pLysS, purified (nickel column, FPLC); not shown: V5, …
Work on B1 yielded a Kd [2] of 210 nM.
